# Literature values as cited in patent publication US12420014B2, “Dosing of incretin pathway drugs” (Closed Loop Medicine Ltd., priority 2023, dated 2025).
# Experiments:
# [1] = all adverse effects, nausea, vomiting; FIG. 13 [1]
# [2] = PK studies
# [3] = subcutaneous administration, patient study data
# [4] = for a given plasma level; FIG. 2B [2]
substance,measurement,setting,value
semaglutide,plasma level below which side effects reduce,[1],less than 50 nmol/L
same,dependence of plasma concentration on other co-medications,[2],do not show a significant dependence
same,higher clearance observed in patients with Type 2 diabetes,[3],12%
same,HbA1c reduction at high starting HbA1c (>8.7%) relative to lower starting levels (<7.4%),[4],3 fold
